Ends that are not written are not given here.
Experiments:
His-MBTD1 = His-MBTD1 (UniProt Q05BQ5 1-628); assay: ITC
[1] = target: MBTD1(140-562)-(GSA)6-EPC1(644-672) fusion protein (UniProt Q05BQ5 140-562; Q9H2F5 644-672); assay: ITC

Chain of His-MBTD1 (Q05BQ5 whole entry, the tested form may be a part): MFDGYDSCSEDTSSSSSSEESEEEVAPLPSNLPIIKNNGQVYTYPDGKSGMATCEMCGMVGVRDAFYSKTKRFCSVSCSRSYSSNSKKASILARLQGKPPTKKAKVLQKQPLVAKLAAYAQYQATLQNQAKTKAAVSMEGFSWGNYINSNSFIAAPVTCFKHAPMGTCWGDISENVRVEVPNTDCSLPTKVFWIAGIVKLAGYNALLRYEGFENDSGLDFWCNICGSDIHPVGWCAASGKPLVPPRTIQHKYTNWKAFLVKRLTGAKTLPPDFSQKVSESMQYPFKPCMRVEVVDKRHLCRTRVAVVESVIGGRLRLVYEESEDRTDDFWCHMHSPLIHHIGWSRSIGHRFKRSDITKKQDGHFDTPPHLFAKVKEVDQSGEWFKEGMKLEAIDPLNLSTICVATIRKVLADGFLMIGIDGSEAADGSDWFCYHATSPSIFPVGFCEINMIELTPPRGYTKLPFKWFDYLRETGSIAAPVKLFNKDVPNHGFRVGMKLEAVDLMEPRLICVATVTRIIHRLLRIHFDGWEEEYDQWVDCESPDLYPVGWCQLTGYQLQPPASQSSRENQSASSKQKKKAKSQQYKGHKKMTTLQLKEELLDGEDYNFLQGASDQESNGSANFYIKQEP

B1: GST-EPC1(644-672) (domain or fragment, UniProt Q9H2F5 644-672, looked up)
chain: QGFVSKTLDSASAQFAASALVTSEQLMGF
Kd (His-MBTD1): ~67 nM
stoichiometry N (His-MBTD1): ~1.3

B2: H4K20me1 peptide (peptide)
peptide: AKRHRK(Me)VLRDN
binding result [1]: binds

— publication doi:10.1101/746180 (bioRxiv, 2020)
